How the values were obtained:
Assay in all cases: SPR
HSA peptide 40 = HSA peptide 40 (human, UniProt P02768)
HSA peptide 4 = HSA peptide 4 (human, UniProt P02768)
HSA peptide 13 = HSA peptide 13 (human, UniProt P02768)

B1: rituximab (antibody, V domains shown)
VH: QVQLQQPGAELVKPGASVKMSCKASGYTFTSYNMHWVKQTPGRGLEWIGAIYPGNGDTSYNQKFKGKATLTADKSSSTAYMQLSSLTSEDSAVYYCARSTYYGGDWYFNVWGAGTTVTVSA
VL: QIVLSQSPAILSASPGEKVTMTCRASSSVSYIHWFQQKPGSSPKPWIYATSNLASGVPVRFSGSGSGTSYSLTISRVEAEDAATYYCQQWTSNPPTFGGGTKLEIK
modifications: AlexaFluor 488 label (only in the ImageStream experiment, a3)
HSA peptide 40
  Kd: 0.52 nM
HSA peptide 4
  Kd: 57 nM
HSA peptide 13
  Kd: 400 nM

Source: PMC5381215 (2017)
